Each block holds one binder with its values, some of them ahead of it.
Columns and labels:
[1] = biological target: GST-fused C-tail of the muscarinic M1 acetylcholine receptor (residues 414–460); test: pull-down; GST-fused receptor C-tails immobilized on glutathione-Sepharose beads, incubated with [35S]-labelled in vitro translated GASPs 1 h at 4°C; 20 mM Tris-HCl pH 7.4, 150 mM NaCl, 1 mM EDTA, 1 mM DTT, 10% glycerol, 1% Triton X-100; Phosphor-imager quantification
[2] = biological target: GST-fused C-tail of the δ-opioid receptor (residues 314–372); test: as above
[3] = biological target: GST-fused C-tail of the β1 adrenergic receptor (residues 373–477); test: as above
[4] = biological target: GST-fused C-tail of the insulin growth factor I receptor (residues 1268–1367); test: as above
free GST = test: as above
[5] = biological target: GST-fused C-tail of the type III transforming growth factor β receptor (residues 805–849); test: as above
[6] = biological target: GST-fused C-tail of the histamine 2 receptor (residues 284–349); test: as above
[7] = biological target: T1, GST-fused C-tail of the calcitonin receptor (residues 407–490); test: as above
T1 sequence (P30988 whole entry, species assumed, looked up): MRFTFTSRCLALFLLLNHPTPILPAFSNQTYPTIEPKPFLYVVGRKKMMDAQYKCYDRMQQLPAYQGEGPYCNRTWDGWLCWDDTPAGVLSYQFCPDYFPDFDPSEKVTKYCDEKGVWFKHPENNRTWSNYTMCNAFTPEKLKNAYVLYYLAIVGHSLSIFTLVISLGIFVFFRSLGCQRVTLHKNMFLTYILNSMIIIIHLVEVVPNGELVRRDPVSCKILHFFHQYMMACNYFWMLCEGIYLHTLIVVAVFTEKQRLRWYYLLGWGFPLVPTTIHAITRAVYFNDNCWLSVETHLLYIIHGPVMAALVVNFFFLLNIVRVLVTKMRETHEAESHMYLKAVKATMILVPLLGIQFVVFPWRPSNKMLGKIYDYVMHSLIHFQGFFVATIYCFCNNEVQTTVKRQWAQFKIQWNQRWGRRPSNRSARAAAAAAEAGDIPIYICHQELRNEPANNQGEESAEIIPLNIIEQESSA

[8] = biological target: GST-fused C-tail of the α isoform of the thromboxane A2 receptor (residues 304–343); test: as above
[9] = biological target: all three receptor C-tails (ADRB1, M1 and CALCR); test: as above
[10] = biological target: GST-fused C-tail of the β1 adrenergic receptor (residues 373–477); test: pull-down; data not shown; GST-ADRB1 C-tail with GASP-1 fragment 924–1395
[11] = biological target: the four receptor C-tails (ADRB1, M1, CALCR and TXA2); test: pull-down; competition: synthetic peptide (1 to 250 µM, or 150 µM) against [35S]-labelled GASPs for GST-fused C-tails; the peptide and the C-tail
[12] = biological target: GST-fused C-tail of the β1 adrenergic receptor (residues 373–477); test: as above

Chain of GST-fused C-tail of the insulin growth factor I receptor (residues 1268–1367) (P08069 1268-1367): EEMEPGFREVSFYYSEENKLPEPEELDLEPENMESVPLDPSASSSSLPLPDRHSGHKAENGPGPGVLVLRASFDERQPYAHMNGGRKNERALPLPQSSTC
Chain of GST-fused C-tail of the histamine 2 receptor (residues 284–349) (P25021 284-349): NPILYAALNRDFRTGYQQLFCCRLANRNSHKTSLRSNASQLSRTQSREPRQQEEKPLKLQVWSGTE
Chain of GST-fused C-tail of the type III transforming growth factor β receptor (residues 805–849) (Q03167 805-849): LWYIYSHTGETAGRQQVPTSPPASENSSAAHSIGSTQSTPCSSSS

- percent of the full-length GASP-1 interaction (% of the full-length GASP-1 interaction) [1]: 70
- percent of the full-length GASP-1 interaction (% of the full-length GASP-1 interaction) [2]: 30
- percent of the full-length GASP-1 interaction (% of the full-length GASP-1 interaction) [3]: 70
B1: GASP-1 truncated mutant 380–1073 (central domain), in vitro translated (domain or fragment)
chain: MTKEEAKTKARARAKQEARSEEEALIGTWFWATDESSMADEASIESSLQVEDESIIGSWFWTEEEASMGTGASSKSRPRTDGERIGDSLFGAREKTSMKTGAEATSESILAADDEQVIIGSWFWAGEEVNQEAEEETIFGSWFWVIDAASVESGVGVSCESRTRSEEEEVIGPWFWSGEQVDIEAGIGEEARPGAEEETIFGSWFWAENQTYMDCRAETSCDTMQGAEEEEPIIGSWFWTRVEACVEGDVNSKSSLEDKEEAMIPCFGAKEEVSMKHGTGVRCRFMAGAEETNNKSCFWAEKEPCMYPAGGGSWKSRPEEEEDIVNSWFWSRKYTKPEAIIGSWLWATEESNIDGTGEKAKLLTEEETIINSWFWKEDEAISEATDREESRPEAEEGDIIGSWFWAGEEDRLEPAAETREEDRLAAEKEGIVGSWFGAREETIRREAGSCSKSSPKAEEEEVIIGSWFWEEEASPEAVAGVGFESKPGTEEEEITVGSWFWPEEEASIQAGSQAVEEMESETEEETIFGSWFWDGKEVSEEAGPCCVSKPEDDEEMIVESWFWSRDKAIKETGTVATCESKPENEEGAIVGSWFEAEDEVDNRTDNGSNCGSRTLADEDEAIVGSWFWAGDEAHFESNPSPVFRAICRSTCSVEQEPDPSRRPQSWEEVTVQFKPGPWGRVGFPSISPFRFPKE
modifications: [35S]-methionine labelled

- percent of GASP input retained (% of GASP input) [1]: 2
- percent of GASP input retained (% of GASP input) [2]: 2
- percent of GASP input retained (% of GASP input) [4]: < 1
- percent of GASP input retained (% of GASP input) (free GST): < 1
- percent of GASP input retained (% of GASP input) [3]: 2
- percent of GASP input retained (% of GASP input) [5]: < 1
- percent of GASP input retained (% of GASP input) [6]: 2
- percent of GASP input retained (% of GASP input) [7]: 2
- percent of GASP input retained (% of GASP input) [8]: 2
B2: GASP-6 (natural protein)
chain: MGYARKVGWVTAGLVIGAGACYCIYRLTRGRKQNKEKMAEGGSGDVDDAGDCSGARYNDWSDDDDDSNESKSIVWYPPWARIGTEAGTRARARARARATRARRAVQKRASPNSDDTVLSPQELQKVLCLVEMSEKPYILEAALIALGNNAAYAFNRDIIRDLGGLPIVAKILNTRDPIVKEKALIVLNNLSVNAENQRRLKVYMNQVCDDTITSRLNSSVQLAGLRLLTNMTVTNEYQHMLANSISDFFRLFSAGNEETKLQVLKLLLNLAENPAMTRELLRAQVPSSLGSLFNKKENKEVILKLLVIFENINDNFKWEENEPTQNQFGEGSLFFFLKEFQVCADKVLGIESHHDFLVKVKVGKFMAKLAEHMFPKSQE
modifications: [35S]-methionine labelled

- percent of the full-length GASP-1 interaction (% of the full-length GASP-1 interaction) [2]: 25
B3: GASP-1 truncated mutant 1025–1395 (conserved C-terminal domain) (domain or fragment)
chain: ICRSTCSVEQEPDPSRRPQSWEEVTVQFKPGPWGRVGFPSISPFRFPKEAASLFCEMFGGKPRNMVLSPEGEDQESLLQPDQPSPEFPFQYDPSYRSVQEIREHLRAKESTEPESSSCNCIQCELKIGSEEFEELLLLMEKIRDPFIHEISKIAMGMRSASQFTRDFIRDSGVVSLIETLLNYPSSRVRTSFLENMIRMAPPYPNLNIIQTYICKVCEETLAYSVDSPEQLSGIRMIRHLTTTTDYHTLVANYMSGFLSLLATGNAKTRFHVLKMLLNLSENLFMTKELLSAEAVSEFIGLFNREETNDNIQIVLAIFENIGNNIKKETVFSDDDFNIEPLISAFHKVEKFAKELQGKTDNQNDPEGDQEN
modifications: [35S]-methionine labelled

- percent of the full-length GASP-2 interaction (% of the full-length GASP-2 interaction) [9]: 30 to 60
B4: GASP-2 truncated mutant 377–838 (domain or fragment)
chain: QEPRFEEEVIIGSWFWAEKEASLEGGASAICESEPGTEEGAIGGSAYWAEEKSSLGAVAREEAKPESEEEAIFGSWFWDRDEACFDLNPCPVYKVSDRFRDAAEELNASSRPQTWDEVTVEFKPGLFHGVGFRSTSPFGIPEEASEMLEAKPKNLELSPEGEEQESLLQPDQPSPEFTFQYDPSYRSVREIREHLRARESAESESWSCSCIQCELKIGSEEFEEFLLLMDKIRDPFIHEISKIAMGMRSASQFTRDFIRDSGVVSLIETLLNYPSSRVRTSFLENMIHMAPPYPNLNMIETFICQVCEETLAHSVDSLEQLTGIRMLRHLTMTIDYHTLIANYMSGFLSLLTTANARTKFHVLKMLLNLSENPAVAKKLFSAKALSIFVGLFNIEETNDNIQIVIKMFQNISNIIKSGKMSLIDDDFSLEPLISAFREFEELAKQLQAQIDNQNDPEVGQQS
modifications: [35S]-methionine labelled

- percent of input retained (% of the input) [10]: 5
B5: GASP-1 fragment corresponding to amino acids 924 to 1395 (domain or fragment)
chain: CCVSKPEDDEEMIVESWFWSRDKAIKETGTVATCESKPENEEGAIVGSWFEAEDEVDNRTDNGSNCGSRTLADEDEAIVGSWFWAGDEAHFESNPSPVFRAICRSTCSVEQEPDPSRRPQSWEEVTVQFKPGPWGRVGFPSISPFRFPKEAASLFCEMFGGKPRNMVLSPEGEDQESLLQPDQPSPEFPFQYDPSYRSVQEIREHLRAKESTEPESSSCNCIQCELKIGSEEFEELLLLMEKIRDPFIHEISKIAMGMRSASQFTRDFIRDSGVVSLIETLLNYPSSRVRTSFLENMIRMAPPYPNLNIIQTYICKVCEETLAYSVDSPEQLSGIRMIRHLTTTTDYHTLVANYMSGFLSLLATGNAKTRFHVLKMLLNLSENLFMTKELLSAEAVSEFIGLFNREETNDNIQIVLAIFENIGNNIKKETVFSDDDFNIEPLISAFHKVEKFAKELQGKTDNQNDPEGDQEN
modifications: [35S]-methionine labelled

- percent of GASP-1, -2 and -7 retained with 150 µM GASP peptide, of the control without peptide [11]: 6 to 35 % of control
- percent inhibition of GASP-2 binding at 100 µM peptide [12]: 65%
- percent inhibition of GASP-2 binding at 250 µM peptide [12]: 76%
B6: GASP peptide (peptide)
peptide: RVKQEPRFEEEVIIGSWFWAEKEA
